Target: monomeric CDK2 (GST-CDK2/CIV in the absence of cyclin A) (UniProt P24941 1-298)
Experiment: real-time fluorescence assay with Cy3-labelled sensor
Description: Fluorescence emission of Cy3 was measured at 590 nm following excitation at 544 nm on Polarstar™ fluorimeter.
Fluorescence kinase assays were performed in 96-well plates in a thermostated chamber (Polarstar BMG) at 30° C. in 200 ul phosphate buffer saline, pH 7.2, 150 mM NaCl, in the presence of 5 mM MgCl2, 0.5 mM ATP, except when stated otherwise. […] Changes in Cy3 fluorescence emission were recorded at 590 nm following excitation at 544 nm. […] Data analysis and curve fitting were performed using the GraFit Software (Erathicus Ltd).

binding result: no binding
B1: GST-CDKACTH1 labelled with Cy3 (CDKACTH1-Cy3) (other)
chain: GEVVDSHLSDMLQQLHSVNASKPSERGLVRQEEAEDPASIPIFWVSKWVDYSDKYGLGYQLSDNSVGVLFNDSTRLILYNDGDSLQYIERDGTESYLTVSSHPNSLMKKITLLKYFRNYMSEHLLKAGANITPREGDELARLPYLRTWFRTRSAIILHLSNGSVQINFFQDHTKLILSPLMAAVTYIDEKRDFRTYRLSLLEEYGSSKELASRLRYARTMVDKLLSSRSASNRLKASPGAGGTGGLPGGGGCSTPKKAKKL
modifications: Cy3-maleimide coupled to the unique cysteine of the substrate sequence (position -2 of the TP phosphorylation site)
notes: The GST tag was not removed; also called CDKACT-Cy3; CDKACT-H1 biosensor; not shown: N-terminal GST tag from the pGex6P1 vector, kept on the biosensor

Source: patent US20150355179A1 (CENTRE NATIONAL DE LA RECHERCHE SCIENTIFIQUE CNRS, published 2015)
